Test results: paper PMC3537844 (Nature structural & molecular biology, 2012)

Molecular target: the molecule itself
Assay: crystal structure

B1: Methylated MxiAC (318-686) (domain or fragment, Shigella flexneri, UniProt P0A1I5 318-686, looked up)
chain: VVEKEKSLSESDSSGYTGTFDIDNSHDSSLAMIENLDAISSETVPLILLFAENKINANDMEGLIERIRSQFFIDYGVRLPTILYRTSNELKVDDIVLLINEVRADSFNIYFDKVCITDENGDIDALGIPVVSTSYNERVISWVDVSYTENLTNIDAKIKSAQDEFYHQLSQALLNNINEIFGIQETKNMLDQFENRYPDLLKEVFRHVTIQRISEVLQRLLGENISVRNLKLIMESLALWAPREKDVITLVEHVRASLSRYICSKIAVSGEIKVVMLSGYIEDAIRKGIRQTSGGSFLNMDIEVSDEVMETLAHALRELRNAKKNFVLLVSVDIRRFVKRLIDNRFKSILVISYAEIDEAYTINVLKTI
modifications: reductive methylated by dimethylamine borane complex (DMAB) and formaldehyde
stoichiometry N: 9
